The supplement of paper PMC7877785
± gives the uncertainty stated by the source.

Test: self-splicing fitness, log relative to wild type (ln ratio); higher = more splicing; Tetrahymena group I intron in knt gene, E. coli kanamycin selection, DiMSum; sequences stand for … in CUCUCU…GGAGGGAAAAGUUAUCAGGCAUGCACCUGGUAGCUAGUCUUUAAACCAAUAGAUUGCAUCGGUUUAAAAGGCAAGACCGUCAAAUUGCGGGAAAGGGGUCAACAGCCGUUCAGUACCAAGUCUCAGGGGAAACUUUGAGAUGGCCUUGCAAAGGGUAUGGUAAUAAGCUGACGGACAUGGUCCUAACCACGCAGCCAAGUCCUAAGUCAACAGAUCUUCUGUUGAUAUGGAUGCAGUUCACAGACUAAAUGUCGGUCGGGGAAGAUGUAUUCUUCUCAUAAGAUAUAGUCGGACCUCUCCUUAAUGGGAGCUAGCGGAUGAAGUGAUGCAACACUGGAGCCGCUGGGAACUAAUUUGUAUGCGAAAGUAUAUUGAUUAGUUUUGGAGUACUCGUGGUCG
In short: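 Fitness was computed with DiMSum as the error-weighted combination of replicate fold changes, kanamycin versus none, each normalised to wild type. The library randomised all eight intron nucleotides of the P1ex region, with the intron placed in the knt kanamycin-resistance gene on pET-22b(+) in E. coli BL21(DE3). Six replicate transformations were grown overnight at 37°C or 30°C on LB agar with or without 25 μg/mL kanamycin, plus 100 μg/mL carbenicillin, 50 μM IPTG and 0.2% rhamnose. Pooled colonies were amplicon-sequenced on an Illumina HiSeq 2500.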

| Sequence | self-splicing fitness (ln) (30 °C) | self-splicing fitness (ln) (37 °C) |
| --- | --- | --- |
| CUAGAGCAAUAUUACGAGAG | -0.641 ± 0.071 | -0.393 ± 0.099 |
| CUAGAGCAAUAUUACGAUGU | -3.45 ± 0.3 | -2.2 ± 0.31 |
| CUAGAGCAAUAUUACGCACC | -2.44 ± 0.41 |  |
| CUAGAGCAAUAUUACGCAUA | -2.97 ± 0.27 | -2.93 ± 0.4 |
| CUAGAGCAAUAUUACGCCUG | -0.0979 ± 0.087 | 0.825 ± 0.12 |
| CUAGAGCAAUAUUACGCUGC | -3.8 ± 0.33 | -2.33 ± 0.33 |
| CUAGAGCAAUAUUACGCUUC | -2.21 ± 0.42 | -1.97 ± 0.3 |
| CUAGAGCAAUAUUACGGACG | 0.0877 ± 0.07 | 0.427 ± 0.097 |
| CUAGAGCAAUAUUACGGCUU | -2.92 ± 0.24 | -1.94 ± 0.26 |
| CUAGAGCAAUAUUACGGGCC | -2.86 ± 0.34 | -1.76 ± 0.34 |
| CUAGAGCAAUAUUACGGUAU |  | -1.76 ± 0.49 |
| CUAGAGCAAUAUUACGUAGA | -3.37 ± 0.16 | -1.5 ± 0.15 |
| CUAGAGCAAUAUUACGUCUU | -3.52 ± 0.18 | -2.27 ± 0.22 |
| CUAUAGCAAUAUUACGACCG | 0.239 ± 0.18 | 0.785 ± 0.27 |
| CUAUAGCAAUAUUACGAGCU | -1.79 ± 0.48 |  |
| CUAUAGCAAUAUUACGAUUG | -0.58 ± 0.097 | 0.313 ± 0.13 |
| CUAUAGCAAUAUUACGCGCC | -1.01 ± 0.43 |  |
| CUAUAGCAAUAUUACGCUUU | -4.86 ± 0.45 | -3.17 ± 0.28 |
| CUAUAGCAAUAUUACGGAGA | -2.82 ± 0.3 | -1.38 ± 0.33 |
| CUAUAGCAAUAUUACGGCAG | -1.51 ± 0.13 | -0.425 ± 0.13 |
| CUAUAGCAAUAUUACGGGCC | -1.54 ± 0.36 |  |
| CUAUAGCAAUAUUACGGGGU | -4.1 ± 0.2 | -2.83 ± 0.28 |

| Sequence | self-splicing fitness (ln) (30 °C) | self-splicing fitness (ln) (37 °C) |
| --- | --- | --- |
| CUAUAGCAAUAUUACGUAGG | -1.44 ± 0.085 | -0.685 ± 0.13 |
| CUCAAGCAAUAUUACGAAAC | -3.86 ± 0.32 | -1.55 ± 0.17 |
| CUCAAGCAAUAUUACGAAAU | -4.62 ± 0.46 | -2.14 ± 0.17 |
| CUCAAGCAAUAUUACGAACU | -3.03 ± 0.2 | -1.27 ± 0.17 |
| CUCAAGCAAUAUUACGAAUU | -4.18 ± 0.28 | -3.03 ± 0.29 |
| CUCAAGCAAUAUUACGACCU | -2.96 ± 0.15 | -1.34 ± 0.17 |
| CUCAAGCAAUAUUACGAGAU | -3.89 ± 0.2 | -0.936 ± 0.12 |
| CUCAAGCAAUAUUACGAGGA | -1.9 ± 0.13 | -1.66 ± 0.13 |
| CUCAAGCAAUAUUACGAGUG | -2.91 ± 0.11 | -1.41 ± 0.086 |
| CUCAAGCAAUAUUACGAUAG | -2 ± 0.1 | -0.283 ± 0.1 |
| CUCAAGCAAUAUUACGAUUC | -4.11 ± 0.27 | -2.26 ± 0.24 |
| CUCAAGCAAUAUUACGCAGC | -4.03 ± 0.43 | -1.9 ± 0.44 |
| CUCAAGCAAUAUUACGCAUA | -3.29 ± 0.22 | -3.07 ± 0.34 |
| CUCAAGCAAUAUUACGCCCC |  | -1.28 ± 0.5 |
| CUCAAGCAAUAUUACGCGAU | -2.3 ± 0.11 | -0.996 ± 0.11 |
| CUCAAGCAAUAUUACGCGGU | -3.45 ± 0.19 | -1.07 ± 0.12 |
| CUCAAGCAAUAUUACGCUUA | -2.62 ± 0.27 | -3.26 ± 0.37 |
| CUCAAGCAAUAUUACGCUUG | -3.58 ± 0.18 | -2.38 ± 0.23 |
| CUCAAGCAAUAUUACGGGAG | -2.91 ± 0.17 | -1.77 ± 0.18 |
| CUCAAGCAAUAUUACGGUUG | -3.38 ± 0.19 | -2.56 ± 0.22 |
| CUCAAGCAAUAUUACGUAGA | -3.23 ± 0.1 | -1.53 ± 0.11 |
| CUCAAGCAAUAUUACGUGAA | -0.683 ± 0.077 | -0.629 ± 0.12 |
